Results: the supplement of paper PMC9112550, “Optimization of the antimicrobial peptide Bac7 by deep mutational scanning” (BMC Biology, 2022)

test system: Escherichia coli TOP10; test: shrunken log2 fold change of peptide-encoding DNA abundance (4.5 h post-induction vs induction); higher = less antimicrobial activity (less host growth inhibition); settings: time post-induction: 4.5 h; library: site-saturation at positions 5, 18, 19, 20
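Further: peptides expressed intracellularly from a pBAD plasmid library in pooled LB shake-flask culture, induced with 0.3% L-arabinose, DNA abundance read by NGS, three biological replicates, DESeq2 with apeglm shrinkage.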

Sequence	shrunken log2 fold change
RRIRPRPPRLPRPRPRPNMSPRP	-0.485
RRIRKRPPRLPRPRPRPYNRPRP	-0.0322
RRIRIRPPRLPRPRPRPFRCPRP	-0.192
RRIRTRPPRLPRPRPRPETCPRP	-0.0408
RRIRCRPPRLPRPRPRPEPLPRP	0.438
RRIRKRPPRLPRPRPRPKPEPRP	0.781
RRIRARPPRLPRPRPRPHYLPRP	-0.503
RRIRLRPPRLPRPRPRPFKPPRP	0.2
RRIRARPPRLPRPRPRPPDLPRP	0.829
RRIRARPPRLPRPRPRPEDIPRP	0.473
RRIRDRPPRLPRPRPRPQWAPRP	0.326
RRIRTRPPRLPRPRPRPPIMPRP	-0.454
RRIRVRPPRLPRPRPRPTREPRP	0.59
RRIRARPPRLPRPRPRPRRTPRP	0.577
RRIRARPPRLPRPRPRPSMVPRP	-0.263
RRIRNRPPRLPRPRPRPVETPRP	0.157
RRIRWRPPRLPRPRPRPGYPPRP	-0.251
RRIRGRPPRLPRPRPRPWHNPRP	-0.145
RRIRSRPPRLPRPRPRPGGYPRP	2.83
RRIRKRPPRLPRPRPRPWPTPRP	0.103
RRIRCRPPRLPRPRPRPYTFPRP	-0.883
RRIRTRPPRLPRPRPRPQEEPRP	-0.0236
RRIRVRPPRLPRPRPRPFEEPRP	-0.000457
RRIRLRPPRLPRPRPRPVCLPRP	-0.0821
RRIRFRPPRLPRPRPRPYWVPRP	-0.683

Sequence	shrunken log2 fold change
RRIRGRPPRLPRPRPRPCMAPRP	0.703
RRIRSRPPRLPRPRPRPIYMPRP	-0.533
RRIRQRPPRLPRPRPRPDYWPRP	0.156
RRIRCRPPRLPRPRPRPSYWPRP	-0.71
RRIRMRPPRLPRPRPRPADAPRP	1.21
RRIRRRPPRLPRPRPRPNQTPRP	0.0193
RRIRMRPPRLPRPRPRPYMVPRP	-0.0313
RRIRARPPRLPRPRPRPTLGPRP	0.504
RRIRCRPPRLPRPRPRPEMQPRP	0.526
RRIRKRPPRLPRPRPRPDTAPRP	0.154
RRIRSRPPRLPRPRPRPEKNPRP	0.312
RRIRQRPPRLPRPRPRPAIKPRP	-0.316
RRIRERPPRLPRPRPRPYCCPRP	-0.899
RRIRPRPPRLPRPRPRPGSLPRP	-0.0171
RRIRKRPPRLPRPRPRPYYSPRP	-0.373
RRIRVRPPRLPRPRPRPGYEPRP	0.232
RRIRCRPPRLPRPRPRPYLMPRP	-0.916
RRIRWRPPRLPRPRPRPDEMPRP	-0.0412
RRIRDRPPRLPRPRPRPCVAPRP	0.633
RRIRKRPPRLPRPRPRPLNGPRP	0.0417
RRIRRRPPRLPRPRPRPRGYPRP	0.398
RRIRARPPRLPRPRPRPFPDPRP	0.262
RRIRDRPPRLPRPRPRPLAEPRP	1.17
RRIRVRPPRLPRPRPRPPYIPRP	-0.28
RRIRYRPPRLPRPRPRPTNQPRP	-0.575

Sequence	shrunken log2 fold change
RRIRNRPPRLPRPRPRPCMHPRP	-0.0807
RRIRARPPRLPRPRPRPQITPRP	0.118
RRIRLRPPRLPRPRPRPELGPRP	0.0397
RRIRARPPRLPRPRPRPPLAPRP	0.861
RRIRLRPPRLPRPRPRPRCPPRP	0.188
RRIRQRPPRLPRPRPRPFTYPRP	-0.0211
RRIRERPPRLPRPRPRPHTSPRP	-0.122
RRIRPRPPRLPRPRPRPNERPRP	0.181
RRIRGRPPRLPRPRPRPLAVPRP	0.809
RRIRLRPPRLPRPRPRPLDQPRP	0.105
RRIRYRPPRLPRPRPRPIYYPRP	-0.461
RRIRNRPPRLPRPRPRPYTGPRP	-0.0137
RRIRDRPPRLPRPRPRPNHEPRP	-0.0728
RRIRCRPPRLPRPRPRPVPGPRP	0.0667
RRIRERPPRLPRPRPRPVHCPRP	-0.293
RRIRWRPPRLPRPRPRPRNNPRP	-0.162
RRIRQRPPRLPRPRPRPVPYPRP	-0.363
RRIRRRPPRLPRPRPRPQEVPRP	-0.00192
RRIRRRPPRLPRPRPRPTSNPRP	0.123
RRIRCRPPRLPRPRPRPYKNPRP	-0.984
RRIRDRPPRLPRPRPRPHLLPRP	0.0253
RRIRDRPPRLPRPRPRPRCMPRP	-0.158
RRIRVRPPRLPRPRPRPPCMPRP	-0.0452
RRIRPRPPRLPRPRPRPFMKPRP	-0.915
RRIRQRPPRLPRPRPRPGPRPRP	0.565
